Data reported in publication PMC9947222.

Experiments:
[1] = target: mouse IgG2a (mIgG2a) antibody (BALB/c IgG2a,κ Purified Mouse Anti-Mouse I-A[b], Clone AF6-120.1), conjugated to the S1-handle DNA with P3 docking site (mouse); experiment: DNA-PAINT super-resolution microscopy on DNA origami (labeling efficiency); mIgG2a-DNA conjugate (60 nM) hybridised to DNA origami held by neutravidin on a biotin-PEG surface; κLC-Nb-7xR3 added in 0.5x buffer C + 1.5% BSA, >45 min at RT, excess washed off; two rounds of Exchange-PAINT (R3, P3); R3 clusters <19 nm from P3 clusters counted
[2] = test system: anti-NP mAb clone B1-8 (Abcam ab206523) (mouse); experiment: FIDA; conditions: binding via NIP hapten; in solution; LNA/2'-OMe as N0; one 5' amino-C6 NIP hapten (carrier strand not stated); BLI: PBS, 0.02% Tween-20, 0.1% BSA, pH 7.4, HJ 0.2-20 nM, temperature not stated; all positive binding is through the NP/NIP hapten, not the nucleic acid

Substance | Fab labeling density [1] [%] | nanobodies bound per BCR (average) [1] | Kd [2] [nM]
anti-mouse kappa light chain nanobody (κLC-Nb) with Ser87 replaced by Cys87, conjugated to the DNA-PAINT docking strand 7xR3 (VHH) | 80 | 1.5 | –
CCGTCCTGAGCC / CACAGTGGACGG / GGCTCACCGATC / GATCGGACTGTG [HJ-1xNIP] | – | – | 20
